In patent publication US20120045395 one finds activity (% of untreated reporter activity) data, which are given here for one substance.

The data set deals with SMAD3 (endogenous, A549 cells) (Homo sapiens) (UniProt P84022). The data set is described as follows: cell_activity. The conditions noted are these: luciferase activity after TGF-beta in A549; indirect.
Chain of SMAD3 (endogenous, A549 cells) (Homo sapiens) (P84022 2-425): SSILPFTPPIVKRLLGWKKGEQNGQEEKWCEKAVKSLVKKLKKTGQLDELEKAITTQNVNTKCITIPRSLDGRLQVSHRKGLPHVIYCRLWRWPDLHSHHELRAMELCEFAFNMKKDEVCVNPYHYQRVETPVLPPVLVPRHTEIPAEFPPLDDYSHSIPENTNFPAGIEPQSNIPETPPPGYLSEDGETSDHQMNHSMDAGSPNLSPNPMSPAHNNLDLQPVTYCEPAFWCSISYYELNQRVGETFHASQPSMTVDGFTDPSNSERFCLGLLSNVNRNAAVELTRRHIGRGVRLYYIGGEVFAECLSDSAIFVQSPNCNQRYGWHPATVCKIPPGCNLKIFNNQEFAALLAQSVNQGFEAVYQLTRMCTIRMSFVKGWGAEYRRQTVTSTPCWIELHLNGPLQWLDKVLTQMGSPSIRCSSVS

With “let-7d promoter -1600 to +87 luciferase reporter (p-let-7d-luc)”, the activity (% of untreated reporter activity) is below 30.
